For assay [1], the target named is mycoplasma pneumonia P30 (purified protein P30Ag produced by expressing amino acids 96-274 with Escherichia coli) (Mycoplasma pneumoniae) (UniProt P75330). Kind of assay: ELISA, P30Ag coated at 4 ng/mL, antibody 5 ug/mL, anti-mouse IgG-peroxidase. (In general: An ELISA detects its analyte on a solid surface through an enzyme-linked reagent.)
For assay [2], the target named is full-length protein mycoplasma pneumonia P30 (amino acids 1-274; SEQ ID NO: 1) (Mycoplasma pneumoniae) (UniProt P75330). As to the kind of experiment: ELISA, full-length P30 coated, 5 ug/mL P30(a), no peptide (0 point of the peptide 1 series).
The target is the same in assay [3]. As to the kind of experiment: ELISA, full-length P30 coated, 5 ug/mL P30(a), no peptide (0 point of the peptide 2 series).
In assay [4] the target is mycoplasma pneumonia P30 (purified protein P30Ag produced by expressing amino acids 96-274 with Escherichia coli) (Mycoplasma pneumoniae) (UniProt P75330). As to the kind of experiment: immunochromatography sandwich, P30(a)-gold label and P30(a) detection line, P30Ag 10 pg/mL, no peptide.
Assay [5] has as its target P30 protein of Mycoplasma pneumoniae as present in Mycoplasma pneumoniae analytes (deactivated Mycoplasma pneumoniae Antigen (FH), Meridian; pharyngeal swabs of infected subjects) (Mycoplasma pneumoniae) (UniProt P75330). Kind of assay: immunochromatography sandwich (Ex. 1), label P30(a), detection P30(a); pharyngeal swab Subject 1, diluted 20 times.
Assay [6] has the same target. As to the kind of experiment: immunochromatography sandwich (Ex. 1), label P30(a), detection P30(a); pharyngeal swab Subject 2, diluted 20 times.
In assay [7] the target is mycoplasma pneumonia P30 (purified protein P30Ag produced by expressing amino acids 96-274 with Escherichia coli) (Mycoplasma pneumoniae) (UniProt P75330). As to the kind of experiment: immunochromatography sandwich (Ex. 3), label P30(a), detection P30(a); analyte P30Ag; Triton X-100/Tween 20 diluent.
For assay [8], the target named is P30 protein of Mycoplasma pneumoniae as present in Mycoplasma pneumoniae analytes (deactivated Mycoplasma pneumoniae Antigen (FH), Meridian; pharyngeal swabs of infected subjects) (Mycoplasma pneumoniae) (UniProt P75330). Kind of assay: immunochromatography sandwich (Ex. 2), label P30(a), detection P30(a); pharyngeal swab Subject 1; Triton X-100/Tween 20 diluent.
For assay [9] the target is unchanged. As to the kind of experiment: immunochromatography sandwich (Ex. 2), label P30(a), detection P30(a); pharyngeal swab Subject 2; Triton X-100/Tween 20 diluent.
The target is the same in assay [10]. As to the kind of experiment: immunochromatography sandwich (Ex. 1), label P30(a), detection P30(a); deactivated Mycoplasma pneumoniae (FH); NP-40/MN-811 diluent.
The target is the same in assay [11]. As to the kind of experiment: immunochromatography sandwich (Ex. 2), label P30(a), detection P30(a); deactivated Mycoplasma pneumoniae (FH); Triton X-100/Tween 20 diluent.
The target of assay [12] is antibody P30(a) (Fucal Research product Mp-P30-3-AB). As to the kind of experiment: immunochromatography competition, 400 ng peptide 2 developed with P30Ag 10 pg/mL, P30(a) label and detection.
Assay [13] addresses antibody P30(b) (Fucal Research product Mp-P30-9-AB). As to the kind of experiment: immunochromatography competition, 400 ng peptide 2 developed with P30Ag 10 pg/mL, P30(b) label and detection.
Assay [14] addresses antibody P30(a) (Fucal Research product Mp-P30-3-AB). As to the kind of experiment: competitive inhibition ELISA, full-length P30 coated, 5 ug/mL P30(a) + peptide 2 at x1 the antibody concentration.
Assay [15] has as its target antibody P30(b) (Fucal Research product Mp-P30-9-AB). Kind of assay: competitive inhibition ELISA, full-length P30 coated, 5 ug/mL P30(b) + peptide 2 at x1 the antibody concentration.
Assay [16] concerns the target antibody P30(a) (Fucal Research product Mp-P30-3-AB). As to the kind of experiment: competitive inhibition ELISA, full-length P30 coated, 5 ug/mL P30(a) + peptide 2 at x10 the antibody concentration.
For assay [17] the target is unchanged. As to the kind of experiment: competitive inhibition ELISA, full-length P30 coated, 5 ug/mL P30(a) + peptide 2 at x20 the antibody concentration.
The target is the same in assay [18]. As to the kind of experiment: competitive inhibition ELISA, full-length P30 coated, 5 ug/mL P30(a) + peptide 2 at x40 the antibody concentration.
Assay [19] has the same target. As to the kind of experiment: competitive inhibition ELISA, full-length P30 coated, 5 ug/mL P30(a) + peptide 2 at x80 the antibody concentration.
In assay [20] the target is antibody P30(b) (Fucal Research product Mp-P30-9-AB). As to the kind of experiment: competitive inhibition ELISA, full-length P30 coated, 5 ug/mL P30(b) + peptide 2 at x10 the antibody concentration.
Assay [21] shares this target. Kind of assay: competitive inhibition ELISA, full-length P30 coated, 5 ug/mL P30(b) + peptide 2 at x20 the antibody concentration.
For assay [22] the target is unchanged. Kind of assay: competitive inhibition ELISA, full-length P30 coated, 5 ug/mL P30(b) + peptide 2 at x40 the antibody concentration.
For assay [23] the target is unchanged. As to the kind of experiment: competitive inhibition ELISA, full-length P30 coated, 5 ug/mL P30(b) + peptide 2 at x80 the antibody concentration.
The target of assay [24] is antibody P30(a) (Fucal Research product Mp-P30-3-AB). Kind of assay: competitive inhibition ELISA, full-length P30 coated, 5 ug/mL P30(a) + peptide 2 at x160 the antibody concentration.
The target is the same in assay [25]. As to the kind of experiment: competitive inhibition ELISA, full-length P30 coated, 5 ug/mL P30(a) + peptide 2 at x320 the antibody concentration.
Assay [26] shares this target. As to the kind of experiment: competitive inhibition ELISA, full-length P30 coated, 5 ug/mL P30(a) + peptide 2 at x640 the antibody concentration.
For assay [27], the target named is antibody P30(b) (Fucal Research product Mp-P30-9-AB). As to the kind of experiment: competitive inhibition ELISA, full-length P30 coated, 5 ug/mL P30(b) + peptide 2 at x160 the antibody concentration.
The target is the same in assay [28]. Kind of assay: competitive inhibition ELISA, full-length P30 coated, 5 ug/mL P30(b) + peptide 2 at x320 the antibody concentration.
The target is the same in assay [29]. As to the kind of experiment: competitive inhibition ELISA, full-length P30 coated, 5 ug/mL P30(b) + peptide 2 at x640 the antibody concentration.
Assay [30] deals with antibody P30(a) (Fucal Research product Mp-P30-3-AB). Kind of assay: competitive inhibition ELISA, full-length P30 coated at 4 ng/mL, 5 ug/mL P30(a) + peptide 2 at 40 times the antibody amount.
In assay [31] the target is antibody P30(b) (Fucal Research product Mp-P30-9-AB). As to the kind of experiment: competitive inhibition ELISA, full-length P30 coated at 10 ng/mL, 5 ug/mL P30(b) + peptide 2 at 40 times the antibody amount.

“antibody P30(a) (Fucal Research product Mp-P30-3-AB)”: the absorbance at 450 nm after subtracting the blank in assay [1] is 0.403 Abs. The Color intensity (Abs) in assay [2] and in assay [3] was 0.411 Abs throughout. For the same molecule, the Color intensity after 15 min in assay [4] is 251 mAbs. Also, the Color intensity (mAbs) in assay [5] amounted to 41.8 mAbs; in assay [6] it was 28.7 mAbs; in [7] it was 180 mAbs; in assay [8] it was 117 mAbs; in assay [9], 51.7 mAbs; in assay [10], 273 mAbs. In assay [11], the Color intensity (mAbs) stood at 490 mAbs.

Consider PGMAPRPGFPPQPGMAPR [Peptide 2 (SEQ ID NO: 7: …)], for which the Color intensity after 15 min was 96.7 mAbs in assay [12] and 31.3 mAbs in assay [13]. In addition, the Color intensity (Abs) in assay [14] was found to be 0.401 Abs; in assay [15], 0.199 Abs; in assay [16], 0.341 Abs; in assay [17] it was 0.29 Abs; in assay [18], 0.26 Abs; in [19], 0.199 Abs. For the same molecule, the Color intensity (Abs) came out at 0.184 Abs in assay [20]; 0.186 Abs in [21]; 0.163 Abs in [22]; 0.133 Abs in assay [23]; 0.172 Abs in assay [24]; 0.16 Abs in assay [25]. Further, the Color intensity (Abs) in [26] came out at 0.18 Abs; in assay [27], 0.125 Abs; in assay [28] it was 0.11 Abs; in [29], 0.114 Abs. Also, the Percentage reduction of color intensity (%) in assay [14] came out at 2%; in assay [15], 4%; in assay [16], 17%; in assay [17], 29%; in assay [18] it was 37%; in assay [19], 52%. Also, the Percentage reduction of color intensity (%) is 12% in assay [20]; 11% in assay [21]; 22% in assay [22]; 36% in assay [23]; 58% in assay [24]; 61% in [25]. Moreover, the Percentage reduction of color intensity (%) in [26] was determined as 56%; in [27], 40%; in [28], 47%; in assay [29], 45%. The figures for the percentage reduction of absorbance in [30] and in assay [31] were more than 30% and 22%, respectively.

Values taken from patent US20180172684A1.
